Results taken from CN113004416A (HEFEI HANKEMAB BIOTECHNOLOGY CO LTD, dated 2021).

B1: 抗人HER2单克隆抗体 Trastuzumab (Herceptin) (antibody, V domains shown)
VH: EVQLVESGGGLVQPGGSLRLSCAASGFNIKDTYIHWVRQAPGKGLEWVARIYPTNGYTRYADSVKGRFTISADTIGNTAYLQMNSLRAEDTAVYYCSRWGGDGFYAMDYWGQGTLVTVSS
VL: DIQMTQSPSSLSASVGDRVTITCRASQDVNTAVAWYQQKPGKAPKLLIYSASFLYSGVPSRFSGSRSGTDFTLTISSLQPEDFATYYCQQHYTTPPTFGGGTKLTVLG
notes: IgG1, kappa; also called 曲妥珠单抗
B2: 抗人4-1BB单克隆抗体 HuB6 (antibody, V domains shown)
VH: QVQLQESGPGLVKPSETLSITCTVSGSSLTSYGVHWVRQPPGKGLEGLGVIWPGGSTNYNSALMSRLTISKDNSKSQVSLKMSSLTAADTAMYYCARVTGTWYFDVWGQGTTVTVSS
VL: DIQMTQSPSSLSASLGDRVTISCSASQGISNYLNWYQQKPDGTVKLLIYYTSTLHSGVPSRFSGSGSGTDFTLTISSLQPEDVATYYCQQYSKLPWTFGGGTKLEIK
notes: Monoclonal antibody; also called Hanke10F4 (专利申请201911105611.1)

How the values were obtained:
[1] = biological target: T1, HER2抗原 (human HER2/ErbB2 in lysate of T6-17 cells, coated on ELISA plate) (human, UniProt P04626 23-1255); assay: ELISA on coated T6-17 cell lysate
T1 construct: The antigen is a crude detergent lysate of cells with high membrane expression of human HER2, not a purified protein

[2] = biological target: T2, 细胞表面HER2抗原 (HER2 on SKOV3, N87, MCF-7/HER2, MCF-7, JIMT-1, AC16 cells) (human, UniProt P04626 23-1255); assay: flow cytometry on N87 cells
T2 construct: whole, on cells

[3] = biological target: T2, 细胞表面HER2抗原 (HER2 on SKOV3, N87, …); assay: flow cytometry on JIMT-1 cells
[4] = biological target: T2, 细胞表面HER2抗原 (HER2 on SKOV3, N87, …); assay: flow cytometry on AC16 cells
[5] = biological target: T2, 细胞表面HER2抗原 (HER2 on SKOV3, N87, …); assay: flow cytometry on SKOV3 cells
[6] = biological target: T2, 细胞表面HER2抗原 (HER2 on SKOV3, N87, …); assay: flow cytometry on MCF-7/HER2 cells
[7] = biological target: 细胞表面4-1BB抗原 (human 4-1BB on CHO-K1-Hu4-1BB stable cells; CD137 on lymphocytes) (human); assay: flow cytometry on CHO-K1-Hu4-1BB cells
细胞表面4-1BB抗原 (human 4-1BB on CHO-K1-Hu4-1BB stable cells; CD137 on lymphocytes) (human), sequence (chain, as listed by the source): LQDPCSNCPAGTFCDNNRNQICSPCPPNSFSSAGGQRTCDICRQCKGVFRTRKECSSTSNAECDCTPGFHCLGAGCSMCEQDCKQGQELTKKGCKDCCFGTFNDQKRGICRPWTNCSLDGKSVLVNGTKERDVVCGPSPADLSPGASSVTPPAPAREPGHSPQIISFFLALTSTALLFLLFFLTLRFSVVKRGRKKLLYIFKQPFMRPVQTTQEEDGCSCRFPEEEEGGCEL

[8] = biological target: 人4-1BB抗原 (recombinant, purified from 293 cell supernatant by Protein A) (human); assay: ELISA on coated 4-1BB antigen
人4-1BB抗原 (recombinant, purified from 293 cell supernatant by Protein A) (human), sequence (chain, as listed by the source): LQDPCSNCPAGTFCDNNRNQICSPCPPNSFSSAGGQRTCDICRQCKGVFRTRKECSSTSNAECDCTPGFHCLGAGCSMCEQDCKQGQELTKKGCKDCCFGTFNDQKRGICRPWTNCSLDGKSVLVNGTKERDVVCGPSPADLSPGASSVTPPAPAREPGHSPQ

| Binder | EC50 [1] | EC50 [2] | EC50 [3] | EC50 [4] | EC50 [5] | EC50 [6] | EC50 [7] | EC50 [8] |
| --- | --- | --- | --- | --- | --- | --- | --- | --- |
| B1 | 0.104 µg/mL | 2 µg/mL | 1.1 µg/mL | 0.851 µg/mL | 1.23 µg/mL | 1.39 µg/mL |  |  |
| B2 |  |  |  |  |  |  | 2.49 µg/mL | 0.00634 µg/mL |
